For series [1], the system named is T1, DNA polymerase clone 2783GBS (uncultured hot spring virus (Great Boiling Spring)).
T1 sequence: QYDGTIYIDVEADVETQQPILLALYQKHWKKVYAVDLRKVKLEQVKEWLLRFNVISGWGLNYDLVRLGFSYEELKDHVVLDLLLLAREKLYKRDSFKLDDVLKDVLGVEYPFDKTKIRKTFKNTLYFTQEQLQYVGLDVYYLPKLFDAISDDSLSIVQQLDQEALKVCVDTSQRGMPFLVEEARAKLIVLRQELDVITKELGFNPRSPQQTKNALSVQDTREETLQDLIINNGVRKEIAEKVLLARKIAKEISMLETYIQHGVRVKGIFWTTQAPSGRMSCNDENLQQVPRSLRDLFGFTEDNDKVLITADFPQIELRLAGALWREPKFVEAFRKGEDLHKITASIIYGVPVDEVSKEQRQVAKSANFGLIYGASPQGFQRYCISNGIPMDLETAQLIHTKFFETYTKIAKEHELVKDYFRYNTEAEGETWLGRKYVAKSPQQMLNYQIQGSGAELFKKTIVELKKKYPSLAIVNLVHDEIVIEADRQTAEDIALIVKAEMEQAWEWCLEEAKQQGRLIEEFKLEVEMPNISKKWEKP
Conditions: dNTP incorporation; background <500.

In series [2] the test system is T2, DNA polymerase clone 1128 (uncultured hot spring virus (Great Boiling Spring)).
T2 sequence: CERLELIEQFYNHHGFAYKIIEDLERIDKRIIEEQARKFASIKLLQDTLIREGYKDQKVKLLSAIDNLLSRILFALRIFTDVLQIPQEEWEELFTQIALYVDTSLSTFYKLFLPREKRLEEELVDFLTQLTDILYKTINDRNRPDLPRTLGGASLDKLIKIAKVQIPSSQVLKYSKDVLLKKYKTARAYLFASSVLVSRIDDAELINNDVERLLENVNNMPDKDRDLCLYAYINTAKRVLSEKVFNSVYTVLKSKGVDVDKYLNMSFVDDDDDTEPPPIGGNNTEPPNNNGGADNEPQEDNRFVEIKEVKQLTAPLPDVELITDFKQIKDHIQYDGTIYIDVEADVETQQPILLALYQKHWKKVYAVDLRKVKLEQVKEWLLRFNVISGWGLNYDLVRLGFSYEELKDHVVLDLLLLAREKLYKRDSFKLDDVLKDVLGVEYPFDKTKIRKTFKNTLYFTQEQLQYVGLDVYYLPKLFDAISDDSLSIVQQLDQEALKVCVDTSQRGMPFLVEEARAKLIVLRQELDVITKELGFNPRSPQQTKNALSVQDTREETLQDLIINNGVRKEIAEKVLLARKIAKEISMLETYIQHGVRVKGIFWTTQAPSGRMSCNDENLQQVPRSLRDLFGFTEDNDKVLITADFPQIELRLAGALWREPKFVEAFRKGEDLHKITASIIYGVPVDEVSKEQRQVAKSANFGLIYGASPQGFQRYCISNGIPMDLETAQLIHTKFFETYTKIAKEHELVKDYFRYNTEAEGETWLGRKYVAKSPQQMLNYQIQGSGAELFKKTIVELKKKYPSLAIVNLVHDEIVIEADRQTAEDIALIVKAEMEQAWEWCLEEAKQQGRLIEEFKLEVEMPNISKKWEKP
Conditions: dNTP incorporation; background <500.

Regarding activated calf thymus DNA, the figures for the activity in series [1] and in series [2] were 11500 cpm and 16400 cpm, respectively.

These data come from patent publication US20100291638.
